The values below come from article PMC12432127, “Assessing the potential of bacterial signal peptides for radiopharmaceutical applications” (Scientific Reports, 2025).

The nature of data set [1]: Stability in human plasma (radio-HPLC). The class given is in vitro ADME. As for the experimental part:
The radiolabelled compound (50 µL) was added to male human AB plasma (500 µL, Sigma Aldrich, USA, male AB) and incubated at 37 °C. Samples of 100 µL were taken at selected time points. The plasma proteins were precipitated with acetonitrile (-20 °C) and the precipitate was centrifuged for 1 min at 1500 rpm. The supernatant was analyzed by analytical radio-HPLC.

Details of data set [2]: species or system mice. The note with it: mouse, in vivo, iv. As for the experimental part: (§1) All experiments involving animals were performed in accordance with an animal experimentation license approved by the Zurich Cantonal Veterinary Office, Switzerland (Jason P. Holland; license number ZH095/2023), and in compliance with the […] Animal Welfare Act. This study is reported in accordance with the ARRIVE guidelines (https://arriveguidelines.org). Six to eight-week old male NOD/SCID mice (17-20 g) were obtained from Charles River Laboratories (Lyon, France). Mice were provided with food and water ad libitum. For planar scintigraphy imaging and ex vivo biodistribution studies, mice were injected with 100 μL sterile saline formulations of ~ 250 pmol (~ 10 MBq) [^177Lu]Lu-[…] by intravenous tail-vein injection and anesthetized with isoflurane (2-4% in air). Imaging was performed on Gamma-eye scanner (Bioemtech, Greece) at 5 min and 1 h p.i. Directly after imaging at 1 h p.i., animals were euthanised by isoflurane asphyxiation followed by terminal exsanguination. A total of 13 tissues were removed, rinsed in water, dried in air for approx. 2 min., weighed and counted on a calibrated gamma counter for accumulation of activity. The mass of radiotracer formulation injected into each animal was measured and used to determine the total number of counts per minute (cpm) injected into each mouse by comparison to a standard syringe of known activity and mass.

Data set [3] is described as follows: in vivo. Set-up: species or system mice. The note with it: male, NOD/SCID, mouse, iv, 250 pmol, total radioactivity. As for the experimental part:
as §1

Data set [4] addresses T1, FPR1 (Homo sapiens, UniProt P21462).
T1 construct: expressed in transfected cells; host or cells: HEK293T (transient, jetPEI)
T1 sequence (P21462 1-350): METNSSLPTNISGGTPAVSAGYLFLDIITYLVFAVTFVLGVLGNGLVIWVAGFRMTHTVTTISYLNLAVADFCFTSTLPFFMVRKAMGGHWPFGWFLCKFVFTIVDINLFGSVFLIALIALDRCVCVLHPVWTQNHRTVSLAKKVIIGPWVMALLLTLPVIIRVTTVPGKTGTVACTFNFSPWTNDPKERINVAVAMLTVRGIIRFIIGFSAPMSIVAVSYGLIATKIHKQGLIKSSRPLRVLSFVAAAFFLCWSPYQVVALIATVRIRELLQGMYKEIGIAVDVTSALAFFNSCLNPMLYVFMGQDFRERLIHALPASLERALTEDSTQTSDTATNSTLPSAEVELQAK
As to the kind of experiment: Cell internalization of radiotracer, FPR1 transfected HEK293T cells. The class given is cell-based. To be noted: 1000-fold excess, all time points. As for the experimental part: The medium was removed from the wells and replaced by fresh complete growth medium (1.3 mL per well). The inhibitor solution BOC-FLFLF (1000-fold excess against the radiotracer, in PBS/DMSO) was added to the wells in the bottom row (100 µL per well). A solution of PBS and DMSO in the same ratio as the inhibitor solution was added to the wells of the top row (100 µL per well). To each well, the radiotracer solution in the desired concentration was added (100 µL per well). The plate was incubated at 37 °C for the time specified for each experiment. The supernatant was removed, and the cells were placed on ice and rinsed twice with ice cold PBS (1 mL per well). Sodium hydroxide (1 M, 2 × 1 mL) was added to detach the cells and the suspension was collected in counting tubes. The tubes were analyzed with an HIDEX gamma counter (HIDEX, Turku, Finland) using the appropriate detection window for the corresponding radionuclide.

In data set [5] the target is T2, f-MVPIK(FITC)I bacterial signal peptide derivative.
T2 chain: For-MVPIK(FITC)I
As to the kind of experiment: confocal fluorescence binding to transfected HEK293T cells.

Data set [6] has as its target T3, f-MVPIK(TAMRA)I bacterial signal peptide derivative.
T3 chain: For-MVPIK(TAMRA)I
The data set is described as above.

Residues, ends and D or L forms follow the SMILES beside them. Groups on a side chain read outwards from the residue. No end group written: not given here. *: point of attachment. FITC = O=C1OC2(c3ccc(O)cc3Oc3cc(O)ccc32)c2ccc(NC(=S)*)cc21; DOTA = O=C(O)CN1CCN(CC(=O)O)CCN(CC(=O)*)CCN(CC(=O)O)CC1; Ahx = NCCCCCC(=O)O; For = O=C*

For the molecule `CC[C@H](C)[C@H](NC(=O)[C@H](CCCCNC(=O)CCCCCNC(=O)CN1CCN(CC(=O)O)CCN(CC(=O)O)CCN(CC(=O)O)CC1)NC(=O)[C@@H](NC(=O)[C@@H]1CCCN1C(=O)[C@@H](NC(=O)[C@H](CCSC)NC=O)C(C)C)[C@@H](C)CC)C(=O)O` [[^177Lu]Lu-f-MVPIK(Ahx-DOTA)I, metal not drawn] (For-MVPIK([Ahx-DOTA])I-OH), in data set [1], the “more hydrophilic fragment (partial degradation)” value is 24%. In addition, the “state of conjugate in human plasma” value in data set [1] was “completely oxidized”. In data set [2], the “location of administered activity in scintigraphy images” value is on record as “the majority of the administered activity was found in the bladder”. Moreover, in data set [2], the “residual activity in scintigraphy images” value is “only minimal residual activity”. Moreover, the tissue uptake at 1 h in data set [3] (biodistribution blood) stood at 0.12 ± 0.02 %ID/g; in data set [3] (biodistribution bone), 0.75 ± 0.13 %ID/g; in data set [3] (biodistribution heart), 0.09 ± 0.01 %ID/g; in data set [3] (biodistribution lg intestine), 0.32 ± 0.12 %ID/g; in data set [3] (biodistribution lungs) it was 0.79 ± 0.12 %ID/g; in data set [3] (biodistribution muscle) it was 0.18 ± 0.03 %ID/g. Moreover, the tissue uptake at 1 h in data set [3] (biodistribution pancreas) amounted to 0.1 ± 0.02 %ID/g; in data set [3] (biodistribution skin) it was 0.49 ± 0.08 %ID/g; in data set [3] (biodistribution sm intestine) it was 0.45 ± 0.09 %ID/g; in data set [3] (biodistribution stomach), 0.17 ± 0.05 %ID/g; in data set [3] (uptake kidneys), 3.35 ± 0.19 %ID/g; in data set [3] (uptake liver), 3.02 ± 0.23 %ID/g. In addition, in data set [3] (uptake spleen), the tissue uptake at 1 h amounted to 4.43 ± 0.38 %ID/g.

With BOC-FLFLF, the “effect of blocking agent on cell-bound activity of the radiotracer” value in data set [4] is “considerably reduced the cell-bound activity”.

B1: FPR1 (protein)
chain: METNSSLPTNISGGTPAVSAGYLFLDIITYLVFAVTFVLGVLGNGLVIWVAGFRMTHTVTTISYLNLAVADFCFTSTLPFFMVRKAMGGHWPFGWFLCKFVFTIVDINLFGSVFLIALIALDRCVCVLHPVWTQNHRTVSLAKKVIIGPWVMALLLTLPVIIRVTTVPGKTGTVACTFNFSPWTNDPKERINVAVAMLTVRGIIRFIIGFSAPMSIVAVSYGLIATKIHKQGLIKSSRPLRVLSFVAAAFFLCWSPYQVVALIATVRIRELLQGMYKEIGIAVDVTSALAFFNSCLNPMLYVFMGQDFRERLIHALPASLERALTEDSTQTSDTATNSTLPSAEVELQAK
In the case of B1, the Kd is 1.1 nM in data set [5] and 3.8 nM in data set [6].
